The test deals with CD177 (UniProt Q8N6Q3). Put plainly: SPR; Biacore T200; CD177 amine coupled to a CM5 chip (about 770 counts for kinetic measurements); PR3 or AAT as soluble analytes in 10 mM HEPES, 150 mM NaCl, 0.05% Tween20; 30 μL/minute; 25°C.

B1: purified proteinase 3 (enzyme)
chain: IVGGHEAQPHSRPYMASLQMRGNPGSHFCGGTLIHPSFVLTAAHCLRDIPQRLVNVVLGAHNVRTQEPTQQHFSVAQVFLNNYDAENKLNDVLLIQLSSPANLSASVATVQLPQQDQPVPHGTQCLAMGWGRVGAHDPPAQVLQELNVTVVTFFCRPHNICTFVPRRKAGICFGDSGGPLICDGIIQGIDSFVIWGCATRLFPDFFTRVALYVDWIRSTLR
With B1, the Kd was found to be 20 nM.

The values above are taken from article PMC9711875.
